Numbered stars: 1 amine (or outer) side, 2 acyl side, 3 side chain; on linkers, the order of the positions; unused ones are H or OH. Bridge positions count the residues as written; N and C are the ends. Ends that are not written are not given here. Phenylene(1,4-NHCOCH2)2 = O=C(C[*:1])Nc1ccc(NC(=O)C[*:2])cc1
Tests used:
[1] = target: T1, FBXW7-SKP1 (Homo sapiens, UniProt Q969H0); experiment: Naive Library Presenter Screening (phage, NGS), FBXW7-SKP1; assay type: binding; conditions: for interaction data at Target Concentration 10: FBXW7 target concentration 10 nM; for interaction data at Target Concentration 30: FBXW7 target concentration 30 nM; for interaction data at Target Concentration 100: FBXW7 target concentration 100 nM; for interaction data at Target Concentration 300: FBXW7 target concentration 300 nM; for interaction data at Target Concentration 1000: FBXW7 target concentration 1000 nM
T1 construct: FBXW7 (Uniprot ID: Q969H0, residues 263-706) with an N-terminal GST-TEV tag and C-terminal AVI tag; GST-TEV (N); made in house; host or cells: E. coli BL21 (DE3)
T1 sequence (Q969H0 263-706): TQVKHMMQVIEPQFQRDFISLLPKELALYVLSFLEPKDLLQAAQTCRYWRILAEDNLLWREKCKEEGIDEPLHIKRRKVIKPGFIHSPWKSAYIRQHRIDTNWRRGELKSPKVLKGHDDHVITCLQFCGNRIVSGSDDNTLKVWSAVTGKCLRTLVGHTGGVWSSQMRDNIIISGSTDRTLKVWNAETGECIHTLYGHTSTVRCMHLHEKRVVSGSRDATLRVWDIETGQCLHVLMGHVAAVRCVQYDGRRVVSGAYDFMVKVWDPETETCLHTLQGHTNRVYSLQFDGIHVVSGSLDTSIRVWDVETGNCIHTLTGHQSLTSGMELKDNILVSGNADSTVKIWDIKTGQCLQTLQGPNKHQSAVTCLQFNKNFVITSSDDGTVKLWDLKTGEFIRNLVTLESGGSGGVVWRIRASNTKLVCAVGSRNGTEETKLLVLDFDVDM
T1 sequence (P63208 whole entry partner, the tested form may be a part): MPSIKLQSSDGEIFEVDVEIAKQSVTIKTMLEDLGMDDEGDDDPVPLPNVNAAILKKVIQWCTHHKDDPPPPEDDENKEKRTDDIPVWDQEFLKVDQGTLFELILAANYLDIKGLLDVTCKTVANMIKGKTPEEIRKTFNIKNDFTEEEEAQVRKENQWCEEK
Experimental: To conduct phage library screening, previously described procedures were utilized in accordance with the present disclosure.
Next-generation sequencing was performed as described in accordance with the present disclosure.
Hit ID and Clustering is performed according to a described procedure in accordance with the present disclosure.

[2] = target: T2, CUL5 (Homo sapiens, UniProt Q93034, L345D/V341R); experiment: Naive Library Presenter Screening (phage, NGS), CUL5; assay type: binding; conditions: for interaction data at Target Concentration 10: CUL5 target concentration 10 nM; for interaction data at Target Concentration 30: CUL5 target concentration 30 nM; for interaction data at Target Concentration 100: CUL5 target concentration 100 nM; for interaction data at Target Concentration 300: CUL5 target concentration 300 nM; for interaction data at Target Concentration 1000: CUL5 target concentration 1000 nM
T2 construct: GST-TEV (N, cleaved yes); made in house; host or cells: E. coli BL21 CodonPlus
T2 sequence (Q93034 1-386 V341R/L345D): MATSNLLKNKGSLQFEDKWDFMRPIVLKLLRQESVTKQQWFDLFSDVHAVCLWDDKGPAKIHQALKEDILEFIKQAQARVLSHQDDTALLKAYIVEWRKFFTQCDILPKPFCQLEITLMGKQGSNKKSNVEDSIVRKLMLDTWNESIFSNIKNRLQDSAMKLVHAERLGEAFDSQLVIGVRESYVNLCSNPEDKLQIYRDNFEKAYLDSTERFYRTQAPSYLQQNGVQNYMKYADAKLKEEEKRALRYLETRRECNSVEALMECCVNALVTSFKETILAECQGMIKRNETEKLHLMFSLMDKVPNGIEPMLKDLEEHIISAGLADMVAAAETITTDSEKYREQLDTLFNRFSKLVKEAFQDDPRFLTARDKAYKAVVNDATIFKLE

| Sequence | interaction data at Target Concentration 10 [1] | interaction data at Target Concentration 30 [1] | interaction data at Target Concentration 100 [1] | interaction data at Target Concentration 300 [1] | interaction data at Target Concentration 1000 ([1]; first column) | interaction data at Target Concentration 1000 ([1]; second column) | interaction data at Target Concentration 10 [2] | interaction data at Target Concentration 30 [2] | interaction data at Target Concentration 100 [2] | interaction data at Target Concentration 300 [2] | interaction data at Target Concentration 1000 ([2]; first column) | interaction data at Target Concentration 1000 ([2]; second column) |
| --- | --- | --- | --- | --- | --- | --- | --- | --- | --- | --- | --- | --- |
| DPAAWICEEAAEICEFW | 0 | 0 | 5 | 4 | 15 | 36 |  |  |  |  |  |  |
| DPADLTCEDAAELCEFW | 2 | 80 | 352 | 535 | 1005 | 510 |  |  |  |  |  |  |
| DPADMMCENAALLCEFW | 1 | 3 | 68 | 20 | 282 | 228 |  |  |  |  |  |  |
| DPADMYCRDAAELCEFW | 1 | 23 | 187 | 302 | 505 | 554 |  |  |  |  |  |  |
| DPAIQQCAEAAWSCYVE |  |  |  |  |  |  | 0 | 13 | 30 | 40 | 14 | 0 |
| DPAIRMCRDAAELCEFW | 0 | 0 | 1 | 4 | 66 | 94 |  |  |  |  |  |  |
| DPAITTCLDAAELCDFW | 1 | 26 | 61 | 34 | 215 | 132 |  |  |  |  |  |  |
| DPAMTWCLNAAELCEFW | 0 | 0 | 0 | 3 | 17 | 83 |  |  |  |  |  |  |
| DPANWVCMDAAELCDFY (DPANWVCMDAAELCDFY-NH2; linker 7-14 via Phenylene(1,4-NHCOCH2)2 (inferred)) | 0 | 0 | 5 | 2 | 99 | 15 |  |  |  |  |  |  |
| DPATFACANAAWECYAR |  |  |  |  |  |  | 0 | 6 | 25 | 11 | 35 | 0 |
| DPATYFCYDAAELCDWW | 0 | 0 | 1 | 5 | 5 | 82 |  |  |  |  |  |  |
| DPAWAICAEAAWDCFMI |  |  |  |  |  |  | 0 | 14 | 13 | 58 | 11 | 0 |
| DPAWHMCAEAAWQCAFW (not fully specified (C-terminus, bridges); cysteine pairing not given here) |  |  |  |  |  |  | 5 | 61 | 106 | 119 | 152 | 0 |
| DPAWMTCATAAWECYLA |  |  |  |  |  |  | 6 | 6 | 62 | 48 | 55 | 0 |
| DPAWRACAQAAWDCIIA |  |  |  |  |  |  | 1 | 167 | 267 | 385 | 368 | 0 |
| DPAWRECAHAAWQCYIQ |  |  |  |  |  |  | 0 | 50 | 47 | 21 | 93 | 0 |
| DPAWWECAEAAWQCQVL |  |  |  |  |  |  | 0 | 6 | 44 | 20 | 59 | 0 |
| DPAYYVCAEAAWNCLFE |  |  |  |  |  |  | 4 | 46 | 104 | 100 | 76 | 0 |

Further lines, results first:

| interaction data at Target Concentration 10 [1] | interaction data at Target Concentration 30 [1] | interaction data at Target Concentration 100 [1] | interaction data at Target Concentration 300 [1] | interaction data at Target Concentration 1000 ([1]; first column) | interaction data at Target Concentration 1000 ([1]; second column) | interaction data at Target Concentration 10 [2] | interaction data at Target Concentration 30 [2] | interaction data at Target Concentration 100 [2] | interaction data at Target Concentration 300 [2] | interaction data at Target Concentration 1000 ([2]; first column) | interaction data at Target Concentration 1000 ([2]; second column) | Sequence |
| --- | --- | --- | --- | --- | --- | --- | --- | --- | --- | --- | --- | --- |
| 4 | 39 | 35 | 163 | 245 | 449 |  |  |  |  |  |  | DPAAFFCDDAAERCEFW |
| 0 | 0 | 20 | 28 | 91 | 17 |  |  |  |  |  |  | DPAFWYCDEAAEMCEFW |
| 0 | 0 | 2 | 7 | 5 | 8 |  |  |  |  |  |  | DPANIACDDAALLCAFW |
| 4 | 131 | 203 | 946 | 1140 | 1464 |  |  |  |  |  |  | DPANIACDDAALLCEFW |
| 0 | 1 | 1 | 7 | 8 | 6 |  |  |  |  |  |  | DPANIACDDAALLCELW |
|  |  |  |  |  |  | 2 | 35 | 91 | 170 | 31 | 0 | DPAWFDCAEAAWQCVFI |
|  |  |  |  |  |  | 0 | 65 |  | 96 | 224 | 0 | DPAWFTCAQAAWDCVFH |
|  |  |  |  |  |  | 16 | 22 | 151 | 104 |  | 0 | DPAWMRCATAAWECVMT |
|  |  |  |  |  |  | 14 | 59 | 284 | 284 | 265 | 0 | DPAWQWCAEAAWQCITH (not fully specified (C-terminus, bridges); cysteine pairing not given here) |
|  |  |  |  |  |  | 0 | 13 | 94 | 60 | 171 | 0 | DPAWYECASAAWVCYSM |
| 0 | 0 | 1 | 3 | 13 | 38 |  |  |  |  |  |  | DPAYFSCEDAAELCEWY |

— US20240376151A1, “STAPLED PEPTIDES AND METHODS THEREOF” (FOG PHARMACEUTICALS, INC., priority 2022, published 2024)
